Experimental data as given in paper PMC9643335.

Target: Trypanosoma brucei ADAT3 (Trypanosoma brucei)
Assay: cryo-EM structure; TbADAT2/3 heterodimer co-expressed in Hi5 cells, purified via the His tag on TbADAT3 (1 M KCl wash), tag cleaved, SEC; mixed with in vitro transcribed TbtRNA-Thr(CGU) in 20 mM Hepes pH 7.5, 50 mM NaCl, 2 mM MgCl2, 0.5 mM TCEP, SEC, vitrified

“Trypanosoma brucei ADAT2 (A87G/C117S) (enzyme)” showed a stoichiometry N of 1.
